Reference: patent US20210032351A1 (XDCEXPLORER SHANGHAI, published 2021)

Key:
[1] = biological target: T1, human EGFRvIII-hFc protein (human, UniProt P00533 25-645); assay: ELISA, coated EGFRvIII-hFc, antibody 0.001 nM
T1 construct: extracellular domain; made in HEK293 cells, purified on protein A; also called immunogen A; hFc-tagged EGFRvIII protein; not shown: human IgG Fc fragment (hFc) of the pCpC vector
Method: (§1) The purified immunogen A (EGFRvIII-hFc) obtained in example 1 (for the preparation method, see step (I) in example 1) is diluted with PBS to a final concentration of 1.0 μg/mL, and then added to a 96-well ELISA plate at 100 μl/well. The plate is sealed with a plastic film and incubated at 4° C. overnight. The next day, the plate is washed twice with a plate washing solution [PBS+0.01% (v/v) Tween20], and added with a blocking solution [PBS+0.01% (v/v) Tween20+1% (w/w) BSA] for blocking 2 hours at room temperature. The blocking solution is discarded, and the purified EGFRvIII antibody obtained in example 2 is added at 100 μl/well. The plate is incubated for 2 hours at 37° C., and then washed 3 times with the plate washing solution [PBS+0.01% (v/v) Tween20]. The plate is added with an HRP (horseradish peroxidase) labeled secondary antibody (purchased from Sigma), incubated at 37° C. for 2 hours, and then washed 3 times with the plate washing solution [PBS+0.01% (v/v) Tween20]. The plate is added with 100 μl of TMB substrate/well, incubated for 30 minutes at room temperature, and then added with 100 μl of stopping solution (1.0N HCl)/well. A450 nm value is read using an ELISA plate reader (SpectraMax 384plus, purchased from Molecular Device), and the results are shown in FIG. 6 and table 10.

[2] = biological target: T1, human EGFRvIII-hFc protein; assay: ELISA, coated EGFRvIII-hFc, antibody 0.1 nM
Method: as §1

[3] = biological target: T2, human EGFR protein (wild-type), on cells (human, UniProt P00533 25-1210); assay: FACS on U87MG and HEB cells
T2 construct: whole, on cells; transfected on CHO-K1 cells; endogenous on the human cell lines; the cell is named under assay; also called wild-type EGFR; hEGFR
Method: (§2) The collected cells are suspended to 2×10⁶ cells/mL with an FACS buffer (HBSS+1% BSA, with the percentage being the mass percentage), added to a 96-well FACS reaction plate at 100 μL/well, then added with 100 μL/well of the purified EGFRvIII antibody (samples to be tested) obtained in example 2, and incubated on ice for 2 hours. The plate is centrifugally washed twice with the FACS buffer, added with 100 μL/well of a fluorescence (Alexa 488) labeled secondary antibody (purchased from Invitrogen), and then incubated on ice for 1 hour. The plate is centrifugally washed 3 times with the FACS buffer, added with 100 μL/well of a fixing solution [4% (v/v) paraformaldehyde] for suspending the cells, and centrifugally washed twice with the FACS buffer after 10 minutes. The cells are suspended in 100 μL of the FACS buffer, and the results are detected and analyzed by FACS (FACS Calibur, purchased from BD). Data analysis is performed by using the software (CellQuest) to obtain the mean fluorescence intensity (MFI) of the cells. Data is further analyzed by using the software (GraphPad Prism5) to perform data fitting and calculate EC50. […] A431 cells (human epidermal cell cancer cell lines) have a large amount of wild-type EGFR protein expressed on the surface thereof. […] U87MG cells (human glioma cell lines) have a small amount of wild-type EGFR protein expressed on the surface thereof, while HEB cells (human glioma cell lines) have a high level of wild-type EGFR protein expression on the surface thereof.

[4] = biological target: T1, human EGFRvIII-hFc protein; assay: ELISA, coated EGFRvIII-hFc, antibody 0.0001 nM
Method: as §1

[5] = biological target: T1, human EGFRvIII-hFc protein; assay: ELISA, coated EGFRvIII-hFc, antibody 100 nM
Method: as §1

[6] = biological target: T1, human EGFRvIII-hFc protein; assay: ELISA, coated EGFRvIII-hFc, antibody 0.01 nM
Method: as §1

[7] = biological target: T1, human EGFRvIII-hFc protein; assay: ELISA, coated EGFRvIII-hFc, antibody 1 nM
Method: as §1

[8] = biological target: T1, human EGFRvIII-hFc protein; assay: ELISA, coated EGFRvIII-hFc, antibody 10 nM
Method: as §1

[9] = biological target: T3, human wild-type EGFR protein on the cell surface (human, UniProt P00533 25-1210); assay: FACS on CHOk1-EGFR cells
T3 construct: whole, on cells; Endogenous on A431, HEB, U87MG cells and normal human primary hepatocytes; transfected on CHOk1-EGFR cells; The cell is named under assay; also called A431; HEB
Method: as §2, with “The cells are washed twice with the HBSS buffer and are counted, and then the cells are diluted with the HBSS buffer to 2×10⁶ cells/ml, added with 1% goat serum blocking solution, with the percentage being the mass percentage, and incubated on ice for 30 minutes, and then centrifugally washed twice with the HBSS buffer. The collected” for “The collected”

[10] = biological target: T4, human EGFRvIII-hFc protein (human, UniProt P00533 25-645); assay: ELISA, EGFRvIII-hFc coated
T4 construct: extracellular domain; also called immunogen A; hFc-tagged EGFRvIII protein; not shown: human IgG Fc fragment (hFc) of the pCpC vector
Method: as §1, with “temperature. […]” for “temperature. The blocking solution is discarded, and the purified EGFRvIII antibody obtained in example 2 is added at 100 μl/well.”, “FIG. 11” for “FIG. 6”, “table 19.” for “table 10.”

[11] = biological target: T5, human EGFRvIII protein on the cell surface (human, UniProt P00533 25-1210); assay: FACS on CHOk1-EGFRvIII cells
T5 construct: whole, on cells; the cell line is named under assay; also called hEGFRvIII; U87MG-hEGFRvIII
Method: The desired cells are subjected to an expanded culture to 90% confluence in a T-75 cell culture flask; the medium is sucked out, and the cells are washed twice with a HBSS buffer (Hanks Balanced Salt Solution) (purchased from Invitrogen), and then treated with an enzyme-free cell dissociation solution (Versene solution: purchased from Life Technology) and collected. The cells are washed twice with the HBSS buffer and are counted, and then the cells are diluted with the HBSS buffer to 2×10⁶ cells/ml, added with 1% goat serum blocking solution, with the percentage being the mass percentage, and incubated on ice for 30 minutes, and then centrifugally washed twice with the HBSS buffer. The collected cells are suspended to 2×10⁶ cells/mL with an FACS buffer (HBSS+1% BSA, with the percentage being the mass percentage), added to a 96-well FACS reaction plate at 100 μL/well, then added with 100 μL/well of the purified EGFRvIII antibody (samples to be tested) obtained in example 2, and incubated on ice for 2 hours. The plate is centrifugally washed twice with the FACS buffer, added with 100 μL/well of a fluorescence (Alexa 488) labeled secondary antibody (purchased from Invitrogen), and then incubated on ice for 1 hour. The plate is centrifugally washed 3 times with the FACS buffer, added with 100 μL/well of a fixing solution [4% (v/v) paraformaldehyde] for suspending the cells, and centrifugally washed twice with the FACS buffer after 10 minutes. The cells are suspended in 100 μL of the FACS buffer, and the results are detected and analyzed by FACS (FACS Calibur, purchased from BD). Data analysis is performed by using the software (CellQuest) to obtain the mean fluorescence intensity (MFI) of the cells. Data is further analyzed by using the software (GraphPad Prism5) to perform data fitting and calculate EC50. […] A431 cells (human epidermal cell cancer cell lines) have a large amount of wild-type EGFR protein expressed on the surface thereof.

OD450 nm [1]	OD450 nm [2]	binding result [3]	OD450 nm [4]	OD450 nm [5]	OD450 nm [6]	OD450 nm [7]	OD450 nm [8]	EC50 [9] [nM]	Maximum mean fluorescence intensity [9] [MFI]	EC50 [10] [nM]	Maximum OD450 value [10] [OD450]	EC50 [11] [nM]	Maximum mean fluorescence intensity [11] [MFI]	Binder
0.1	0.64	no binding	0.09	3.72	0.16	3.2	3.69	–	–	–	–	–	–	Murine anti-53D8 (antibody, V domains shown, murine hybridoma antibody; also called 53D8H4) VH: QVQLQQSGAELARPGASVKMSCKASGYTFTSYTMHWVKQRPGQGLEWIGYINPSSGYTKYNQIFKDKATLTADKSSSTAYMQLSSLTSEDSAVYYCTRGGGRGFAYWGQGTLVTVSA VL: DILMTQSPSSMSVSLGDTVSITCHASQDINSNIGWLQQKPGKSFKGLIYHGTNLEDGVPSRFSGSGSGADYSLTISSLESEDFADYYCVQYAQFPFTFGSGTKLEIK
–	–	–	–	–	–	–	–	44.8	84700	0.54	1.86	24.8	94100	c75G7C6-3 (antibody, human IgG1, V domains shown, Chimeric 75G7C6 with DG of heavy chain CDR3 mutated to EG; Human IgG1/kappa; also called mutant chimeric antibody DG/EG) VH: EVQLQQSGPELVKPGASVKIPCKASGYTFTDYNMDWVKQSHGKSLEWIGDINPNNGDTIYNQKFKGKATLTVDKSSSTAYMELRSLTSEDTAVYYCARGDYEGYYPVYYAMDYWGQGTSVTVSS VL: ENVLTQSPAIMSASPGEKVTMTCRASSSVSSSYLHWYQQKSGASPKLWIFSTSNLAAGVPARFSGSGSGTSYSLTVSSVEAEDAATYYCQQYSGYPLTFGAGTKLELK
0.1	0.18	no binding	0.09	3.61	0.11	0.98	3.53	–	–	–	–	–	–	Murine anti-56F10 (antibody, V domains shown, murine hybridoma antibody; also called 56F10G2) VH: EVQLQQSGAELVKPGASVKLSCTASGFNIKDFYMHWVKQRTEQGLEWIGRIDPEDGETKYAPKFQGKATITADTSSNTAYLQLSSLTSEDTAVYYCGCRTGGFAYWGQGTLVTVSA VL: QIVLTQSPAIMSASPGEKVTMTCSASSSVSYLYWYQQKPGSSPSLLIYDTSNLASGVPVRFSGSGSGTSYSLTISRMEAEDAATYYCQQWSRNPWTFGGGTKLEIK
0.08	0.49	no binding	0.08	3.71	0.13	2.68	3.67	–	–	–	–	–	–	Murine anti-59G3 (antibody, V domains shown, murine hybridoma antibody; also called 59G3F12) VH: DVQLQESGPGLVKPSQSLSLTCSVTGYSITSGYYWHWIRQFPENKLEWMGYISYDGSNIYNPSLKNRISITRDTSKNQFFLKLNSVTTEDTATYYCAINSDYALDYWGQGTSVTVSS VL: QIVLTQSPAIMSASPGEKVTMTCSASSSVSYMYWYQQKPGSSPRLLIYDTSNLASGVPVRFSGSGSGTSYSLTISRMEAEDAATYYCQQWSSYSLTFGAGTKLELK
